The series deals with T1, PUF4 RNA-binding domain (Saccharomyces cerevisiae, UniProt P25339 537-888).
T1 sequence: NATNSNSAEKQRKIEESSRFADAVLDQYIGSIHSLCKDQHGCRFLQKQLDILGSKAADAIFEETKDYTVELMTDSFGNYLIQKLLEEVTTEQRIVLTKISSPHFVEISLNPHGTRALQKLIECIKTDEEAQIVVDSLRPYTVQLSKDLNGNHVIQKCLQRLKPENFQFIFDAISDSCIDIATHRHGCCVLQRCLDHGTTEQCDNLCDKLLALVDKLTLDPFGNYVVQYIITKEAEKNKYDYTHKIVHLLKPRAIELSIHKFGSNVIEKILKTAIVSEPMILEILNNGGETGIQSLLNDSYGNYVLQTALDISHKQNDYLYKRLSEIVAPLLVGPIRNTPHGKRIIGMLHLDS
Description: Mg; RNA-MaP; 20 mM Na-HEPES pH 7.4, 30 mM KOAc, 0.75 mM MgCl2, 0.1% Tween-20, 5% glycerol, 0.1 mg/mL BSA, 2 mM DTT; 25 C; 0.0125-409.6 nM protein. The conditions noted are these: tags: N-His6-TEV cleaved; C-SNAP kept, Cy3B-labelled; label: tethered on chip by stalled RNA polymerase.

33 molecules from paper PMC9352680, “A comprehensive thermodynamic model for RNA binding by the Saccharomyces cerevisiae Pumilio protein PUF4” can be followed below.

One may read the Kd as the free concentration of one partner at which half of the binding sites on the other are occupied at equilibrium, for simple one-to-one binding. Higher therefore signals a looser complex.

UCUCUUAGUAUAUAUCUCUU (ssRNA) [Ia_S1_P3E.1_K3.1_C3.1_H3.1_[T1A]_A3.1_F3.1_T3.1]: binding was put at a Kd of 742 nM.

B1: Ib_S2_P4E.1_K4.1_C4.1_H4.1_[G2A]_[A4C]_A4.1_F4.1_T4.1 (ssRNA)
RNA: UUUGAUUAAUAUGAUAUCGUUCUUUCUUAUCUAUUAUUCUUUCUCGAUAUCAUAUUAAUCUUU
For B1, the affinity, expressed as Kd, was 1120 nM. This Kd lies about 1.5-fold higher than the previous one.

B2: Ib_S2_P4E.1_K4.1_C4.1_H4.1_[A4T]_A4.1_[A6G]_F4.1_T4.1 (ssRNA)
RNA: UUUGAUUAAUAUGAUAUCGUUCUUUCUUGUUUGUUAUUCUUUCUCGAUAUCAUAUUAAUCUUU
The molecule B2 returned a Kd of 55.4 nM.

B3: Ia_S2_P4E.1_K4.1_C4.1_H4.1_[A4T]_A4.1_F4.1_T4.1 (ssRNA)
RNA: UUUGAUUAAUAUGAUAUCGUUCUUUCUUGUUUAUUAUUCUUUCUCGAUAUCAUAUUAAUCUUU
B3 registered a Kd of 4.39 nM. Against the preceding molecule, the Kd is about 13-fold lower.

B4: Ib_S2_P4E.1_K4.1_C4.1_H4.1_[G2A]_[A4T]_A4.1_F4.1_T4.1 (ssRNA)
RNA: UUUGAUUAAUAUGAUAUCGUUCUUUCUUAUUUAUUAUUCUUUCUCGAUAUCAUAUUAAUCUUU
As to B4, the equilibrium dissociation constant (Kd) came to 852 nM.

B5: Ib_S2_P4E.1_K4.1_C4.1_H4.1_[G2T]_A4.1_[T5A]_F4.1_T4.1 (ssRNA)
RNA: UUUGAUUAAUAUGAUAUCGUUCUUUCUUUUAAAUUAUUCUUUCUCGAUAUCAUAUUAAUCUUU
With B5, the Kd was determined as 1900 nM.

B6: Ib_S2_P4E.1_K4.1_C4.1_H4.1_[T3C]_[A4T]_A4.1_F4.1_T4.1 (ssRNA)
RNA: UUUGAUUAAUAUGAUAUCGUUCUUUCUUGCUUAUUAUUCUUUCUCGAUAUCAUAUUAAUCUUU
In turn, B6 yielded a Kd of 667 nM.

B7: Ia_S2_P4E.1_K4.1_C4.1_H4.1_[G2T]_A4.1_F4.1_T4.1 (ssRNA)
RNA: UUUGAUUAAUAUGAUAUCGUUCUUUCUUUUAUAUUAUUCUUUCUCGAUAUCAUAUUAAUCUUU
The molecule B7 came in with a Kd of 137 nM.

B8: Ib_S2_P4E.1_K4.1_C4.1_H4.1_[G2T]_A4.1_[A6G]_F4.1_T4.1 (ssRNA)
RNA: UUUGAUUAAUAUGAUAUCGUUCUUUCUUUUAUGUUAUUCUUUCUCGAUAUCAUAUUAAUCUUU
The molecule B8 gave a Kd above 2300 nM.

B9: Ib_S2_P4E.1_K4.1_C4.1_H4.1_[T1G]_A4.1_[T7A]_F4.1_T4.1 (ssRNA)
RNA: UUUGAUUAAUAUGAUAUCGUUCUUUCUGGUAUAAUAUUCUUUCUCGAUAUCAUAUUAAUCUUU
In turn, B9 came in with a Kd of 303 nM.

B10: Ib_S2_P4E.1_K4.1_C4.1_H4.1_[G2C]_A4.1_[T7C]_F4.1_T4.1 (ssRNA)
RNA: UUUGAUUAAUAUGAUAUCGUUCUUUCUUCUAUACUAUUCUUUCUCGAUAUCAUAUUAAUCUUU
With B10, binding was put at a Kd of 190 nM.

B11: Ia_S2_P4E.1_K4.1_C4.1_H4.1_[A4C]_A4.1_F4.1_T4.1 (ssRNA)
RNA: UUUGAUUAAUAUGAUAUCGUUCUUUCUUGUCUAUUAUUCUUUCUCGAUAUCAUAUUAAUCUUU
Consider B11, for which the affinity, expressed as Kd, was 4.11 nM. This Kd is about 46-fold lower than that of the molecule before.

B12: Ib_S2_P4E.1_K4.1_C4.1_H4.1_[A4G]_A4.1_[A6C]_F4.1_T4.1 (ssRNA)
RNA: UUUGAUUAAUAUGAUAUCGUUCUUUCUUGUGUCUUAUUCUUUCUCGAUAUCAUAUUAAUCUUU
With B12, the equilibrium dissociation constant (Kd) was 8.2 nM. This Kd is about 2-fold higher than that of the molecule before.

B13: Ib_S2_P4E.1_K4.1_C4.1_H4.1_[T3C]_A4.1_[T5C]_F4.1_T4.1 (ssRNA)
RNA: UUUGAUUAAUAUGAUAUCGUUCUUUCUUGCACAUUAUUCUUUCUCGAUAUCAUAUUAAUCUUU
For the molecule B13, the Kd was found to be 14.6 nM.

B14: Ib_S2_P4E.1_K4.1_C4.1_H4.1_[T3C]_A4.1_[T7G]_F4.1_T4.1 (ssRNA)
RNA: UUUGAUUAAUAUGAUAUCGUUCUUUCUUGCAUAGUAUUCUUUCUCGAUAUCAUAUUAAUCUUU
Regarding B14, the Kd turned out to be 616 nM.

B15: Ib_S2_P4E.1_K4.1_C4.1_H4.1_[T3C]_A4.1_[A6G]_F4.1_T4.1 (ssRNA)
RNA: UUUGAUUAAUAUGAUAUCGUUCUUUCUUGCAUGUUAUUCUUUCUCGAUAUCAUAUUAAUCUUU
Molecule B15 displayed a Kd of 777 nM.

B16: Ib_S2_P4E.1_K4.1_C4.1_H4.1_[T1C]_A4.1_[T7G]_F4.1_T4.1 (ssRNA)
RNA: UUUGAUUAAUAUGAUAUCGUUCUUUCUCGUAUAGUAUUCUUUCUCGAUAUCAUAUUAAUCUUU
Molecule B16 had an equilibrium dissociation constant (Kd) of 132 nM.

B17: Ib_S2_P4E.1_K4.1_C4.1_H4.1_[G2A]_A4.1_[A6C]_F4.1_T4.1 (ssRNA)
RNA: UUUGAUUAAUAUGAUAUCGUUCUUUCUUAUAUCUUAUUCUUUCUCGAUAUCAUAUUAAUCUUU
The molecule B17 came in with a Kd of 154 nM.

B18: Ib_S2_P4E.1_K4.1_C4.1_H4.1_[A4C]_A4.1_[A6T]_F4.1_T4.1 (ssRNA)
RNA: UUUGAUUAAUAUGAUAUCGUUCUUUCUUGUCUUUUAUUCUUUCUCGAUAUCAUAUUAAUCUUU
Consider B18, for which the dissociation constant (Kd) was found to be 28.6 nM.

B19: Ib_S2_P4E.1_K4.1_C4.1_H4.1_[G2C]_A4.1_[A6G]_F4.1_T4.1 (ssRNA)
RNA: UUUGAUUAAUAUGAUAUCGUUCUUUCUUCUAUGUUAUUCUUUCUCGAUAUCAUAUUAAUCUUU
Consider B19, for which the Kd is 1150 nM.

B20: Ib_S2_P4E.1_K4.1_C4.1_H4.1_[T3C]_[A4C]_A4.1_F4.1_T4.1 (ssRNA)
RNA: UUUGAUUAAUAUGAUAUCGUUCUUUCUUGCCUAUUAUUCUUUCUCGAUAUCAUAUUAAUCUUU
B20 returned an equilibrium dissociation constant (Kd) of 1130 nM.

B21: Ib_S2_P4E.1_K4.1_C4.1_H4.1_[T1A]_A4.1_[A6T]_F4.1_T4.1 (ssRNA)
RNA: UUUGAUUAAUAUGAUAUCGUUCUUUCUAGUAUUUUAUUCUUUCUCGAUAUCAUAUUAAUCUUU
Consider B21, for which binding was put at a Kd of 739 nM.

B22: Ib_S2_P4E.1_K4.1_C4.1_H4.1_[T3C]_A4.1_[A6C]_F4.1_T4.1 (ssRNA)
RNA: UUUGAUUAAUAUGAUAUCGUUCUUUCUUGCAUCUUAUUCUUUCUCGAUAUCAUAUUAAUCUUU
B22 registered a dissociation constant (Kd) of 1010 nM. This Kd and that of the molecule before are within 1.5-fold of each other.

B23: Ib_S2_P4E.1_K4.1_C4.1_H4.1_[G2T]_A4.1_[A6T]_F4.1_T4.1 (ssRNA)
RNA: UUUGAUUAAUAUGAUAUCGUUCUUUCUUUUAUUUUAUUCUUUCUCGAUAUCAUAUUAAUCUUU
For B23, the affinity, expressed as Kd, was 1390 nM.

B24: Ib_S2_P4E.1_K4.1_C4.1_H4.1_[T1C]_A4.1_[A6G]_F4.1_T4.1 (ssRNA)
RNA: UUUGAUUAAUAUGAUAUCGUUCUUUCUCGUAUGUUAUUCUUUCUCGAUAUCAUAUUAAUCUUU
For B24, binding was characterised by a dissociation constant (Kd) of 795 nM.

B25: Ib_S2_P4E.1_K4.1_C4.1_H4.1_[T1A]_A4.1_[T7G]_F4.1_T4.1 (ssRNA)
RNA: UUUGAUUAAUAUGAUAUCGUUCUUUCUAGUAUAGUAUUCUUUCUCGAUAUCAUAUUAAUCUUU
B25: the dissociation constant Kd was 550 nM.

B26: Ib_S2_P4E.1_K4.1_C4.1_H4.1_[T1G]_A4.1_[A6T]_F4.1_T4.1 (ssRNA)
RNA: UUUGAUUAAUAUGAUAUCGUUCUUUCUGGUAUUUUAUUCUUUCUCGAUAUCAUAUUAAUCUUU
On to B26, for which binding was put at a Kd of 497 nM.

B27: Ib_S2_P4E.1_K4.1_C4.1_H4.1_[T1A]_A4.1_[T5A]_F4.1_T4.1 (ssRNA)
RNA: UUUGAUUAAUAUGAUAUCGUUCUUUCUAGUAAAUUAUUCUUUCUCGAUAUCAUAUUAAUCUUU
B27 returned a dissociation constant Kd of 657 nM.

B28: Ib_S2_P4E.1_K4.1_C4.1_H4.1_[G2T]_A4.1_[A6C]_F4.1_T4.1 (ssRNA)
RNA: UUUGAUUAAUAUGAUAUCGUUCUUUCUUUUAUCUUAUUCUUUCUCGAUAUCAUAUUAAUCUUU
Turning to B28, the Kd was above 2300 nM.

B29: Ib_S2_P4E.1_K4.1_C4.1_H4.1_[G2A]_A4.1_[T7G]_F4.1_T4.1 (ssRNA)
RNA: UUUGAUUAAUAUGAUAUCGUUCUUUCUUAUAUAGUAUUCUUUCUCGAUAUCAUAUUAAUCUUU
Regarding B29, binding was put at a Kd of 80.2 nM.

B30: Ib_S2_P4E.1_K4.1_C4.1_H4.1_[T1G]_A4.1_[T5C]_F4.1_T4.1 (ssRNA)
RNA: UUUGAUUAAUAUGAUAUCGUUCUUUCUGGUACAUUAUUCUUUCUCGAUAUCAUAUUAAUCUUU
B30 registered a Kd of 21.1 nM. Against the preceding molecule, the Kd is about 3.8-fold lower.

B31: Ib_S2_P4E.1_K4.1_C4.1_H4.1_[A4G]_A4.1_[A6T]_F4.1_T4.1 (ssRNA)
RNA: UUUGAUUAAUAUGAUAUCGUUCUUUCUUGUGUUUUAUUCUUUCUCGAUAUCAUAUUAAUCUUU
In the case of B31, the dissociation constant Kd is 4.38 nM.

B32: Ib_S2_P4E.1_K4.1_C4.1_H4.1_[T1C]_A4.1_[A6T]_F4.1_T4.1 (ssRNA)
RNA: UUUGAUUAAUAUGAUAUCGUUCUUUCUCGUAUUUUAUUCUUUCUCGAUAUCAUAUUAAUCUUU
Molecule B32 registered a dissociation constant Kd of 126 nM.
